A protein production outcome set (Wang et al. 2014)

Test: label from the status in PepcDB records

With “MRKRGIMSKRLLAVLCMASVTTSLFSFRGLEVKASPNVPYDQKESLAPLGEVYSIETLLNWTPESDPDAKYNRASIELQDRFMGDIVNENANPEAKIMNVALTNPYVDRAPSQGSDSMDAYVFSYWQYVNSYVYWGGSSRGIFALPTPDVVDNAHKNGVPVLATIGFPWGPGEGYVEQVRAFLQKDNNGNFPVADKMIEIAEYYGFDGYFFNQESYGCVKDDADRMVEMLEYIKKKAPNMVIGWYDSMTVDGNVKWQDALNDKNAAFFQNGENRTTDEFFLNYNWTPEKIETTVNTAKSLGRSPFDVYAGLDVQQNAYNTPFNDDYLLDENGKLRLSLAMYTPNSTFSMAKDVYDFYKHDQKFWVGPTGDPSKSDTEQDWTGLANYVPDRSAINDLPFVTNFNLGHGEDYYIDGSLSRDEEWNNRAMQEYLPTWRWIVESNGSKLTPDFDFKTAYNGGSSLKVEGKLEAANPNHIKLYSTDLNIENNSTELSIVYKTESAPNMKVGLCFGENYDEENFTFFDVNKNSNGEWTEVKIPLGDHVGKTISAISLKFESGQDVENFKINVGQISIEETAENNKGLKNSDVILEETMVHNSNSAEARIYWNGLESGNEDDLAFYEIYRIKPDGSRELMGATPNDAYYVQEFERYGEEMEFDIEVVPVDVNYNRGEGKRVTFNWGIPHDATQIPDKKVYENLALYKSVQTSAEGAAEPGLKAVDGKVDNNSKWCAAGAKDGWLTIDLGEPKNIQRWVVKHAEAGGEAKDMNTKDFALEVSYDGGQTYQEVDVVTGNEDAITDRNLENPIVAQHLRLRIDNSGSSPWAAIRIYEFQLYEETFTDQTTEIPMRFVNAKNNKGANDSVLFTRGKEGQTVNLYKGLNDETPFATATIDSNGEAKFEGLDFGEDGGRVYYGTVEEGKRESLRMSAAFEGENWEYSKVPERFELTPYKAPGMNGENHNYGTLKINDLEAGDIVSIFNDKDSIFPEKVSVPVAKGGDTAILDRISINPEGGVLTLEVKSEGKKARRIEVPYSGFGEIEMKIESEAPTNLRTVDVQKKSVSLAWDSPENTYGLEGYIIYKDNKKVGEVSADETEFTVGKLNRHTIYNFKVAAKYSNGEISKRDTITVRTAR” the protein production was “failed”.
With “MRKRIFWLLPDLASARRTMDDLLLARIENSHIHFVGRDGADMTGLHEANLFQTSDIVHAAEMGLMVGGGVGIVAGVVVAMFPIVSDSPQWGLVGVLAVLGAVFGAWAASMIGSSAPNSRLRSFEKDIEAGKLLLMVDVPRGRVEEVEALLQKAHPEASFAGLDPAVPAFP” the protein production was “failed”.
For “MRLDKFIAQQLGVSRAIAGREIRGNRVTVDGEIVRNAAFKLLPEHDVAYDGNPLAQQHGPRYFMLNKPQGYVCSTDDPDHPTVLYFLDEPVAWKLHAAGRLDIDTTGLVLMTDDGQWSHRITSPRHHCEKTYLVTLESPVADDTAEQFAKGVQLHNEKDLTKPAVLEVITPTQVRLTISEGRYHQVKRMFAAVGNHVVELHRERIGGITLDADLAPGEYRPLTEEEIASVV”, the protein production was “not failed”.
In the case of “MRLFFSLLILLSFFARATEPVQVFTDDLGRKVTVPAHPKRIVSLHDLDITIPLIELGVPPVASHGRTRPDGSHFIRSGALLTGVDFDNSSIAFIGTADIDIEAIVAAKPDLIITEPTRNTPIERLEKIAPTVSIDHLKGGAPEIYRKLAELTGTQSQLAILERRYQAQINALKATLDSQKITVSVIQANQGKINVMHSYHSLGRVLRDAGFRFPPLIESIPEGGRMDVSAERLPELDADFVFATWRGDTGGKPQDELAAMEKVMPGWCQFLTACRSGRYVLISREEAISNSFASLGLMAAQIQSQIAGRPLPEAK”, the protein production is reported as “not failed”.
For “MRLLACWTDVHHRHAPMTAHDLPRQAFLRGAVAILPLSLAVAPWGLLAGSMAIEANLTPAEGQGLSAIVFAGAAQLVAIGMLKGGAGFFSIIFTTLLLTSQHLLYGMSLRPVLSPLPGRWRIGLGFLLTDEFFALASQHDRRNFNRWYALGVGLTFYIAWNLFTLAGILLGRSIPGLEHLGLDFSIAATFIALVAPLVRNVPTLVCVATSLFCSVLFSHWQWSSALVLAGLAGMAAGFICNKLYREAPWSGQ”, the protein production was “failed”.
For “MRLLAVFVSSRLSPEDPLYARWVRYGEVLAEEGFGLACGGYQGGMEALARGVKAKGGLVVGVTAPAFFPERRGPNPFVDLELPAATLPQRIGRLLDLGAGYLALPGGVGTLAELVLAWNLLYLRRGVGRPLAVDPYWLGLLKAHGEIAPEDVGLLRVVADEEDLRRFLRSL”, the protein production was “not failed”.
With “MRLLVAFAVIYFISISPVCAENTASTINIPTPAIESPLASKSLLLDISLIGQEKLVTVGQHGHILLSNDGKKWQQANVPVQVTLTNVFFLNEQLGWAVGHDATILHSQDGGLNWQVQQYLPLLEKPLFDIYFKNPQQGIAVGAYGQVFRTNDGGSTWQNEFHQEILLADDVEYLNELKAEDEAAYLDEITFILPHFNRLVQDGGSLFLLGETGLLAKSDDFGLTWQQFDNFYQGSFFSLARTKTGNVLVAGLRGHVFRSLNHGSQWDEVPTNTTALLNDIVFANDERIFILGNNGMLLISTDDGESFSKIPQQDGKTLIAGVWFKGQLIAVSDVGIKVVDLSQE” the protein production was “failed”.
In the case of “MRLNKLFILYSLFGILMASCIKDEAPNAEADITGISFEEDVLASARFNLNPSYNDNLQAYPILVKVKEGTPLNKLSPLFELTPGATISPESGSEHDFSDGKRVKYTVTSENKAWQRVYSIGVREQSVSDIPNEFHFEDIRLINGINPKYKYQEFYEEQDGLELTWASGNEGFNWAASSSATENYPTSQYDNGKNGKCAKLETRLTGSLGAMVGMPIAAGNLFIGEFDMTNALTSPLKATHFGTPFCYKPSRLKGWYKYKAGERFYENGGYTDRKDVMNIYAIFYEGESYNEAGEVTEVILDGNLPNQNYEHPSMVALALISNPHETDDWEAFDIPFDYQRYGKEIDETKLAKGKYKLSIIFASSKNGATFEGAPGSTLLVDDVELIFE”, the protein production is reported as “failed”.
For “MRLNYPSKVSEEGFQVMVLSLSILKKSFNDFLSTRMLLINLGPILLSLAFFGAVFYYNGGNIVGYCQTLLPQSLNDYSHSQGFFAGVFAWVFKALVYFLIFWIVILLSLVINIFASIFYTPLVVSYLHQKYYPHVVLEEFGSILFSIKYFLKSLAFMLLFLAVLTPFYFIPFIGVFGVFFSIVPHFLFFKNTMSLDIASMIFNHQSYQNLLKQHRLKHYRFSFFCYLFSLIPFFNFFATLLQTLMLTHYFFIFKEKEC”, the protein production was “not failed”.
In the case of “MRLPFAITRFAAGAALAALGTSAFANCVANPPTQSNASFPASLAGKLAYHSYVSYGDGTSQLFIYDFAARTLTQVSKSAWGIQDPMNAVFSPDGKWLAFMGITNNAWNVFLWQVGSSSQPVNMTNSTGQTRNEDPKFSADGKSLFFKQSGDVMQATLSYTSTGPIFTSVVDITNTAPATENSMPFATPDGSAVYFATGTGAGMGLYKETIATHATFAFDTPAGLQTYYPIVRADGTVFYARWKDAASQADQIYTKVNPGDTPNQLSINDCNSNNSDPAPVNGTNYVFFSSTTAGGYQLYLGDVSTGQRWSLSQFGVNSDTTKAKLGSNYYAGGTTASTSGQTTRLLSQGMPASASSSYNSSLGAANAFDGDTANTRWDSIEGSAAGTQWLMVDLGTVRTINGVDLYWDAGAKTYAIQTSSDGVNWTSIYSTSNGIAYGHAVLSNLRGSGRYVRMYGTQRATQWGYSIDEMQVWGY”, the protein production is reported as “failed”.
For “MRLPGSGYSYTVIQSKNNYSQKSSFGISFVILSRGTKIFREDLFEFLSNFDFIREIISIEKQSNRSSLQFISESYGKLKFILLSDDLNSGEKVNLAMKESSCDFVFVLQSDMYLLNPFWIPNIFDEIVKKNVLLVGGEFFDKEEEMIPSIFLPSIDKKQKFKVILVNSEKDYEKTLITMDYCGLYSKEKFLQLGGFDARIQNEYFQRIDFGLRAIYFGEHVYIYRKLRIQYTALNSPENLTKSKSFLIFLLKNYVPIFVGNGVVFSFLRFCKICLKYKINPFLFQKEFKEIKGEITKNSLRFKGDLKSAIELWENDIID”, the protein production was “failed”.
With “MRLRNWPRWQRWLNRRIPPASSVELNQRRVFILPTRQGGAFGLALLVMLLAAINYQNSLAYGLTFLLLSLGVVTILHTYRNLAGLRLTALGADPVFAGERAGFRVRLESPRRARQAIAVGWPERPLEYADLAGDAAAEVLLFHPTERRGWLRPGRLRVESRFPLGLLVAWSWVDLRQQALVYPRPQAGEPLLAPGAEDAEDQGRALASAGVDDYQGLRAYQPGDSRRRLHWKAFSRGQGLLVKDFAALGGEDLWLEFERLGGDLESRLGRLCHAVLELSARQQPYGLALPGTRLQPASGEAQREACLRALALFGAAR” the protein production was “failed”.
For “MRLSILRARSTGSGQASPRASRTRGARSAAAGGSWVVIFLPLHCGTRSLTMPRRARNAQTASSCSLERPNEWKEPPPVSGFEVTIVDAESVIAWVKAGKVTVFDVREPEEFAAAHIEGAIPNPLSRFDASLIPTDSPVPVVLHCRSGVRCGHAADRLRASGFQGKINRMAGGIIAWQAAGGPVVSG”, the protein production was “failed”.
For “MRLSKEFIGLGIITASLIFGSSLPDIYKGIVILIVAGCLWFFELLPLPVTSLAIPIMAVFLGIFNLKEALTYFAHPIIFLFLGGFMLAQALKNHNLDKFIAYKLLNYGKDFKTTCFLMFLSAYFLSMWISNTSATLILLPIALGLLHKKTGKLRDFLLLGVAYSASIGGIATIIGSPPNAIASSYLDYGFFSWFKVGFPISLLLFLICTLTLYIYFKKWIPKEDIAIQARMELSRNAYKLLVIFVLIASLWIISDYLSEIFNVQYFDSVIAIFAIILLFVFNLVEVNDFKKIDWGTLILFGGALCLGGVIVKSGANTFLSEKLIAILGNLTPIVLLFLVVTITIILTNFISNTGLTGIIVPILFGVSLGIPKEILILAVGMSASCSFILPVGTPPNAIVYSEGVKKEEMMKIGMILSILSAAVITLYSILYL”, the protein production was “failed”.
With “MRMENQKDLQENYLKVLERVELGSRVSGTVVNIMKDYVLVDIGYKSEGFIKIEEFENVPQVGDRLEAIVVRIGGELGLILSVEKLNSLNFQDKVYEYIQNKKIIKGKVLVELPNGYKIQINENVSGFMPFYLSSKSKDEKLKRGSVVEFYILEASEADGLRLILDRRTLEKERDLAKRIELVSSYNEEDVVDGVVERITEYGAIVKIKNFVTGILHKRNIAFNQVENVEDFVRVGDKLKLKIIKINPQTGKMELSLKALKANPWDSVDVKYKIDSIVKGKVVKILPFGAVIELDSELSGFLHISNFSWIRVVKSPQELIKLGQIVEVKILEIDKENQKISLGIKQINENPWERLTEKYPIGRVVQGVVTNITKTGAFVNIEEGIDAYVSKFDISWLEEIDPEEYFKIGDLVNGKVLEVDKRKRNVRLGIKQLEESPWEDFSKSYKKGDTIEVEIVEKKSKGFQVRVYNKIMGFISKIQLGDTKESSLETFEKLNVGDKLKVVITSIDSKDKSVLLSYREYENQRSREEISSYLFKGNDEESYKPFENLLKRDELEHHHHHH” the protein production was “not failed”.
With “MRMIGRRRALEHRITLIAVIVILQLAATLFFLVDVTGDLRADGSGVHIAAEAGAAIALLVGVVFGAAQVRWLVLRARQDEAAVAAAKGALADLARLRFSDWKLTAAEADVALFALKGCDVAEIAALRGAAAGTVRAQLARVYAKAGVNSQSALMALFLEELVEAGEG” the protein production was “failed”.
